Measured values from patent US20110305783A1, “Method and pharmaceutical composition for treating psoriasis, squamous cell carcinoma and/or parakeratosis by inhibiting expression of squamous cell carcinoma-related antigen” (Shiseido Company, Ltd., priority 2005, published 2011).
Entries after “also recorded” stand apart in the source; their conditions may differ. Read-outs that look alike come from different tables or passages of the source. Ends that are not written are not given here. * marks the point of attachment. Cbz = O=C(OCc1ccccc1)*; CH2F = FC*

T1: caspase-14 (Homo sapiens, UniProt P31944)
T1 construct: human caspase-14 is purified in the form of a heterodimer composed of a large subunit (17 KDa) and a small subunit (11 KDa); from tissue; host or cells: human cornified cells (heel stratum corneum)
T1 sequence (P31944 6-146 limits assumed): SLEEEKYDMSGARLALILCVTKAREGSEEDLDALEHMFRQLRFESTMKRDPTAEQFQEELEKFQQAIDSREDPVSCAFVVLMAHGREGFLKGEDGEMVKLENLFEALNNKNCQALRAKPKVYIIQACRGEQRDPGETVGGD
T1 sequence (P31944 153-242 limits assumed): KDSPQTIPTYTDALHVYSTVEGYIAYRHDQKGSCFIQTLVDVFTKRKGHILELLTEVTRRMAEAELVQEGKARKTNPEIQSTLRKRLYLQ

T2: caspase-3 (Homo sapiens, UniProt P42574)
T2 construct: purchased BIOMOL Research Labs, Inc. (Plymouth Meeting, Pa.)
T2 sequence (P42574 29-277): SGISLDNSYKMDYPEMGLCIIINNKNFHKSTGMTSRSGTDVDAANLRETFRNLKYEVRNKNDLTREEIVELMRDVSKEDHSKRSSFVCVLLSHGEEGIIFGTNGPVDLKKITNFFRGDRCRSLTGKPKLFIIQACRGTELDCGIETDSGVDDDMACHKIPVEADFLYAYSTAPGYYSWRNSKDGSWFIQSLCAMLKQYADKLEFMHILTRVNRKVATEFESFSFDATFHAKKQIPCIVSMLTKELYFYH


Tests used:
Type in all cases: biochemical
caspase-14 [1] = molecular target: T1, caspase-14; test: Inhibitor assay on purified caspase-14, WEHD-MCA hydrolysis activity
Protocol: Caspase-14 was incubated with peptide inhibitors of caspase (consisting of YVAD, VDVAD, DEVD, VEID, IETD, LEHD and DNLD) and class-specific inhibitors of cysteine proteinase (IAA) and serine proteinase (AEBSF). Residual enzyme activity was measured using WEHD-MCA as substrate in the presence of 1.3 M sodium citrate and 5 mM DTT. […] The values are shown as the average values of duplicate assays.
Briefly, the assay mixture was prepared from 45 μl of 0.1 M HEPES buffer (pH 7.5), 0.06 M NaCl, 0.01% CHAPS, 5 mM DTT, 1.3 M sodium citrate and 10 μM WEHD-MCA (all concentrations indicate the final concentrations). An enzyme sample (5 μl) was added to this mixture followed by incubating for 10 to 30 minutes. The reaction was stopped with 150 μl of 0.1 M monochloroacetic acid, and measurements were performed at an excitation wavelength of 355 nm and emission wavelength of 460 nm using Fluoroskan Ascent FL (Thermo Electron Co., Wolsam, Mass.). In the case of the inhibitor assay, caspase-14 and peptide inhibitor were incubated in the assay buffer for 15 minutes, and the assay was started with the addition of 5 μl of 100 μM WEHD-MCA.
Human cornified cells (approx. 14 g) scraped from the heels of healthy individuals were extracted with 0.1 M Tris-HCl (pH 8.0) containing 0.14 M NaCl using a glass homogenizer. A supernatant was obtained after centrifuging at 15,000 g for 60 minutes. After concentrating with Amicon Ultra (Millipore, Mass.) and desalting with the Fast Desalting Column HR10/10 (Amersham Biosciences), the crude product was applied to a HiPrep 16/10 QXL column. […] In addition, hydrolysis activity with respect to Ac-[…]-Glu-His-Asp-methyl-coumarin amide (WEHD-MCA) (Peptide Institute, Inc., Osaka, Japan) was measured for each fraction. Positive fractions were placed on a Mono Q column equilibrated with the same buffer and eluted a maximum NaCl gradient of 1 M. The caspase-14 fraction was further separated by Mono S cationic exchange chromatography. The column was equilibrated with 20 mM acetate buffer (pH 4.5) and eluted at an NaCl gradient of 0 to 1 M. Positive fractions were concentrated and placed on a chromatofocusing Mono P column equilibrated with 25 mM ethanolamine (pH 8.3). The column was eluted while forming a pH gradient from 8 to 5 using 46 ml of Polybuffer (pH 5.0). The caspase-14 was finally purified using Superdex 75 gel chromatography. The protein concentration was determined with the BioRad Protein Assay Kit (BioRad Lab, Hercules, Calif.).

caspase-3 = molecular target: T2, caspase-3; test: Caspase-3 activity with SCCA-1, synthetic substrate DEVD-MCA or natural substrate ICAD
From the text: The enzymatic characteristics of purified caspase-14 were extremely unique. […] The inventors of the present invention determined for the first time that SCCA-1 is an intrinsic inhibitor against caspase-14. The most unique characteristic of SCCA-1 is its remarkable specificity for caspase-14. Other members of caspase-1 to -10 are not affected by SCCA-1. […] Crm A belongs to the serpin superfamily and is known to be able to inhibit a large number of caspases including caspase-1 and caspase-8 (Gagliardini, V., et al., Science 263, 826-(1994)). XIAP is known to inhibit caspase-3, -7 and -9 (Srinivasula, S. M., et al., Nature 410, 112-6 (2001)). Since the anti-apoptotic protein p35 inhibits caspase-1, -3, -6, -7, -8 and -10, it is considered to have a broader spectrum.

[2] = system: Recombinant caspases-1 to 10; test: Recombinant caspases incubated with SCCA-1, hydrolysis of synthetic caspase substrates; conditions: recombinant caspase incubated with SCCA-1 (FIG. 10C)
Protocol: (§1) ICAD decomposition was only observed in the presence of kosmotropic salt. […] When SCCA-1 was added to the mixture, ICAD decomposition was virtually not detected, and there were still no effects after incubating for 16 hours (B). (C) The results are shown of investigating hydrolysis activity on synthetic caspase substrates in the presence of kosmotropic salt.
Benzyloxycarbonyl (Z)-YVAD-FMK, Z-VDVSD-FMK, Z-DEVD-FMK, Z-VEID-FMK, Z-IETD-FMK, Z-LEHD-FMK and Z-VAD-FMK were purchased from BioVision (Mountain View, Calif.). Recombinant caspases-1 to 10 were obtained from BIOMOL Research Labs, Inc. (Plymouth Meeting, Pa.).
(§2) Although SCCA-1 is a member of the serpin superfamily, it inhibits cysteine proteases such as papain and cathepsin L (Takeda, A., et al., Biol. Chem., 383, 1231-6 (2002)). […] Thus, the inventors of the present invention conducted a test as to whether or not SCCA-1 is able to inhibit caspase members. Kosmotropic conditions were used in the case of caspase-14. […] Recovery of enzyme activity was not observed even if the incubation time increased.

caspase-14 [3] = molecular target: T1, caspase-14; test: ICAD decomposition by purified caspase-14, Western blot; conditions: pre-incubation with 10 μM SCCA-1, kosmotropic salt, Western blot (FIG. 10B)
Protocol: as §1
The inventors of the present invention tested the effects of caspase-14 on ICAD during the course of searching for natural substrates of caspase-14. This is because disappearance of the nucleus is an extremely important event for terminal differentiation.
as §2

[4] = inhibitors at 5, 2.5 and 1.25 μM, WEHD-MCA substrate, 1.3 M sodium citrate, 5 mM DTT

Molecule | Inhibitory effect on purified caspase-14 activity (caspase-14 [1]; [4]) | further results
NCCc1ccc(S(=O)(=O)F)cc1 [ABBSF, 4-(2-aminoethyl)benzenesulfonyl fluoride] | did not exhibit significant inhibitory effects | –
O=C(O)CI [IAA, iodoacetic acid] | – | Inhibitory effect on purified caspase-14 activity (caspase-14 [1]): did not exhibit significant inhibitory effects
Benzyloxycarbonyl (Z)-YVAD-FMK | extremely potent inhibitory effects; also recorded: most potent inhibitory action | –
VAD-FMK: pan-caspase inhibitor (Cbz-Val-Ala-Asp-CH2F) | sensitivity; also recorded: one of the most potent caspase-14 inhibitors | –
SCCA-1: recombinant squamous cell carcinoma antigen 1, member of the serpin superfamily, intrinsic inhibitor of caspase-14 (protein) MNSLSEANTKFMFDLFQQFRKSKENNIFYSPISITSALGMVLLGAKDNTAQQIKKVLHFDQVTENTTGKAATYHVDRSGNVHHQFQKLLTEFNKSTDAYELKIANKLFGEKTYLFLQEYLDAIKKFYQTSVESVDFANAPEESRKKINSWVESQTNEKIKNLIPEGNIGSNTTLVLVNAIYFKGQWEKKFNKEDTKEEKFWPNKNTYKSIQMMRQYTSFHFASLEDVQAKVLEIPYKGKDLSMIVLLPNEIDGLQKLEEKLTAEKLMEWTSLQNMRETRVDLHLPRFKVEESYDLKDTLRTMGMVDIFNGDADLSGMTGSRGLVLSGVLHKAFVEVTEEGAEAAAATAVVGFGSSPTSTNEEFHCNHPFLFFIRQNKTNSILFYGRFSSP | – | Inhibition of caspase-3 activity (caspase-3): did not inhibit; Effect on enzyme activity of caspase members (1 to 10) [2]: None of the caspase members (1 to 10) were affected; Inhibition of ICAD cleavage by caspase-14 (caspase-14 [3]): inhibited decomposition of ICAD; also recorded: completely inhibited

Now from value to molecule, other results behind:

Inhibitory effect on purified caspase-14 activity (caspase-14 [1]; [4]) | Molecule | further results
sensitivity | DEVD-FMK: caspase-3 inhibitor | –
sensitivity | IETD-FMK: caspase-8 inhibitor (Cbz-IETD-CH2F) | –
sensitivity | LEHD-FMK: caspase-9 inhibitor (Cbz-LEHD-CH2F) | –
sensitivity | VDVAD-FMK: caspase-2 inhibitor (VDVAD-CH2F) | –
hardly any effect | VEID-FMK: peptide inhibitor of caspase (Cbz-VEID-CH2F) | –
